Experimental data taken from publication doi:10.1101/2025.02.13.638205 (2025).

B1: recombinant Pfs230 D13D14 (K2828-E3111) (domain or fragment)
chain: KTIGKDICKYDVTTKVATCEIIDTIDSSVLKEHHTVHYSITLSRWDKLIIKYPTNEKTHFENFFVNPFNLKDKVLYNYNKPINIEHILPGAITTDIYDTRTKIKQYILRIPPYVHKDIHFSLEFNNSLSLTKQNQNIIYGNVAKIFIHINQGYKEIHGCDFTGKYSHLFTYSKKPLPNDDDICNVTIGNNTFSGFACLSHFELKPNNCFSSVYDYNEANKVKKLFDLSTKVELDHIKQNTSGYTLSYIIFNKESTKLKFSCTCSSNYSNYTIRITFDPNYIIPE
B2: nanobody W2812 (VHH)
VHH: QVQLQESGGGLVQPGGSLRLSCAASGRTFSSYMMAWFRQSQGNERELVAGLTRSGVSAYYADSVKGRFTISRDNAKNTVYLQMNSLKPKDTAVYYCAAASTTYINHIYTNPSNYPHWGPGTQVTVSS
B3: nanobody W2810 (VHH)
VHH: QVQLQESGGGLVQAGGSLRLSCAASGRTFSSYAMGWFHQAPGKEREFVASISWSGGSIRYADSVKGRFTVSRDNAKNTAYLQMNSLKPEDTGVYYCAAGPYSSDYGGFGSWGQGTQVTVSS

Assays:
W2811 = test: BLI
[1] = target: B1; test: BLI

Binder	Kd (W2811)	Kd [1]
B1	5.12 nM	–
B2	–	1.55 nM
B3	–	4.8 nM
